Test results taken from publication PMC8837617.

Target: MAPK ERK2 (human), P28482
Assay: FP
Conditions: modification not given

MAPK ERK2 (human), P28482, sequence (P28482 whole entry): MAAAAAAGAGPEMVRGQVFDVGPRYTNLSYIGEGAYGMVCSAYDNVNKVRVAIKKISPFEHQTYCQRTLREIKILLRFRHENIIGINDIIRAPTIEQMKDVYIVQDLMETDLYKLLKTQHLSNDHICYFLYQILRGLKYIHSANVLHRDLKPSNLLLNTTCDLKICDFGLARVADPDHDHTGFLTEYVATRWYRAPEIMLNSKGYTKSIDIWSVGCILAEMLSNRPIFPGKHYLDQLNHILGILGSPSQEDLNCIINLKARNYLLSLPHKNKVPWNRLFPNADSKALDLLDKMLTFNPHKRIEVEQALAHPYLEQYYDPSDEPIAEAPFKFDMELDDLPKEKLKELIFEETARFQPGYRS

Ki [µM] | Binder
65 | SKGKKRNPGLKIPK [MKK6]
431 | QGKRKALKLNFANP [MKK4]
